Values of other authors, collected in article PMC13142048.

How the values were obtained:
[1] = target: CD96 (TACTILE) (Homo sapiens) (UniProt P40200)
[2] = target: TIGIT (Homo sapiens) (UniProt Q495A1)
[3] = target: CD226 (DNAM-1) (Homo sapiens) (UniProt Q15762)
Sequence of UniProt Q15762 (Q15762 19-254): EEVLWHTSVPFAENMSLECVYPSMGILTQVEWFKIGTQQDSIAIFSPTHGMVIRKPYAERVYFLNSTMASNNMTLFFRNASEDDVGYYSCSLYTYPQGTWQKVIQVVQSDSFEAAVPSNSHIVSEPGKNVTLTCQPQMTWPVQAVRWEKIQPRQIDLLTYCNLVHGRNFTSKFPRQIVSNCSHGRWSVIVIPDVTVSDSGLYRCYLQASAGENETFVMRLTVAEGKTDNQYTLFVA

Sequence of UniProt Q495A1 (Q495A1 22-141): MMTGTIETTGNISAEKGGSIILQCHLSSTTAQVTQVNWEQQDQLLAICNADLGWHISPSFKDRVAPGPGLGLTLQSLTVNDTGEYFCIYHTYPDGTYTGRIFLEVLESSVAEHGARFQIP
Sequence of UniProt P40200 (P40200 22-519): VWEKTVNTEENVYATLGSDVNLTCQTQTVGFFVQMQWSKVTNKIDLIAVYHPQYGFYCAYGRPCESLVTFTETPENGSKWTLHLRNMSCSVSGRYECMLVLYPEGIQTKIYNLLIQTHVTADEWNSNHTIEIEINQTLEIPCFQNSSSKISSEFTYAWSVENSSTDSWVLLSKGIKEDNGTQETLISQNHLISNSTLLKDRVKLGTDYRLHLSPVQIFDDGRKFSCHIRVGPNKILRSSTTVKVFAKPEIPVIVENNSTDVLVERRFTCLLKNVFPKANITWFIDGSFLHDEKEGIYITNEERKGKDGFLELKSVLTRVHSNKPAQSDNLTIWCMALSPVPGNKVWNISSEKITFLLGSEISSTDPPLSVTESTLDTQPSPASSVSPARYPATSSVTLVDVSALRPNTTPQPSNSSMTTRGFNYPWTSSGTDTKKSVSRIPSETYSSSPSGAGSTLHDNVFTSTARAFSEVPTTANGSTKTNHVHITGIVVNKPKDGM

For CD155 (from UniProt P15151), the Kd [1] is listed as 37.6 nM, the Kd [2] is listed as 3.15 nM and the Kd [3] is listed as 119 nM.
